This note sets out measurements from patent US12391751B2, “Antibody against advanced glycation end products and use thereof” (Bloom Technology Corporation, priority 2018, dated 2025).

For one experiment, the target named is Glycer-AGEs-BSA (Bos taurus, UniProt P02769). Briefly: Dissociation constant measurement, Biacore T200 (Example 8). It counts as binding. The following applies: Biacore T200, sensor chip CM5; ligand Glycer-AGEs-BSA; antibody 0 to 400 nM. On the procedure:
The dissociation constant (Kd value) of the monoclonal antibody SJ-5 was measured by the following approach: BSA containing AGEs derived from glyceraldehyde (Glycer-AGEs-BSA) was diluted with a 10 mM sodium acetate solution (pH 4.0) to prepare a ligand solution with a final concentration of 100 μg/mL. Biacore T200 (GE Healthcare Japan Corp.) was used for the immobilization of the ligand and the calculation of the KD value. The ligand solution was immobilized onto sensor chip CM5 (GE Healthcare Japan Corp.) using an amine coupling kit (GE Healthcare Japan Corp.). Subsequently, antibody dilution solutions containing the monoclonal antibody diluted into concentrations from 0 to 400 nM were prepared, and the Kd value was calculated.

For experiment [1], the system named is protein modified with the novel structure in human serum. As to the kind of experiment: Western blotting of human serum protein purified with PB-1 antibody column (Example 37). Format: binding. The following applies: PB-1 as primary antibody; versus secondary antibody only. On the procedure: The solvent for the PB-1 antibody was replaced with a coupling buffer solution (0.2 M sodium carbonate, 0.5 M NaCl, pH 8.3) through a PD10 column (GE Healthcare Japan Corp.) to prepare 1 mL of a 10 mg/mL PB-1 antibody solution. The coupling support used was NHS-activated Sepharose 4 Fast Flow (GE Healthcare Japan Corp.). 10 mL of 1 mM HCl cooled in an ice bath was injected to 1 mL of NHS-activated Sepharose 4 Fast Flow, immediately thereafter mixed with the preliminarily prepared 10 mg/mL PB-1 antibody solution, and mixed by inversion (4° C., overnight) using a rotator (Taitec Corp.) so that the PB-1 antibody was immobilized to the coupling support. Then, 3 mL each of a buffer solution for blocking (0.1 M Tris-HCl, pH 8.0) and a buffer solution for washing (0.1 M sodium acetate, 0.5 M NaCl, pH 5.0) was injected thereto in order, and this operation was repeated three times. Finally, the solvent was replaced by the injection of 10 mL of PBS, followed by storage at 4° C.
The purification sample used was human serum (pool) (Cosmo Bio Co., Ltd.). […] Each fraction obtained by purification was analyzed by electrophoresis (SDS-PAGE) according to a routine method. […]

Another experiment concerns the target A-peak-BSA (Bos taurus, UniProt P02769). As to the kind of experiment: Dissociation constant measurement of PB-1, Biacore T200 (Example 26). The following applies: Biacore T200, CM5; ligand A-peak-BSA; PB-1 0.1953 to 50 nM; 1:1 binding model. The procedure:
The dissociation constant (Kd value) of the monoclonal antibody PB-1 was measured by the following approach: A-peak-BSA was diluted with a 10 mM sodium acetate solution (pH 5.0) to prepare a ligand solution with a final concentration of 50 μg/mL. Biacore T200 (GE Healthcare Japan Corp.) was used for the immobilization of the ligand and the calculation of the KD value. The ligand solution was immobilized (final amount immobilized: 72 RU) onto sensor chip CM5 (GE Healthcare Japan Corp.) using an amine coupling kit (GE Healthcare Japan Corp.). Subsequently, PB-1 antibody dilution solutions from 0.1953 to 50 nM were prepared with a running buffer solution HBS-P+ (GE Healthcare Japan Corp.), and a sensorgram was obtained.
1:1 binding was adopted to a fitting model, and the sensorgram was analyzed.

Sequence of Glycer-AGEs-BSA (P02769 25-607): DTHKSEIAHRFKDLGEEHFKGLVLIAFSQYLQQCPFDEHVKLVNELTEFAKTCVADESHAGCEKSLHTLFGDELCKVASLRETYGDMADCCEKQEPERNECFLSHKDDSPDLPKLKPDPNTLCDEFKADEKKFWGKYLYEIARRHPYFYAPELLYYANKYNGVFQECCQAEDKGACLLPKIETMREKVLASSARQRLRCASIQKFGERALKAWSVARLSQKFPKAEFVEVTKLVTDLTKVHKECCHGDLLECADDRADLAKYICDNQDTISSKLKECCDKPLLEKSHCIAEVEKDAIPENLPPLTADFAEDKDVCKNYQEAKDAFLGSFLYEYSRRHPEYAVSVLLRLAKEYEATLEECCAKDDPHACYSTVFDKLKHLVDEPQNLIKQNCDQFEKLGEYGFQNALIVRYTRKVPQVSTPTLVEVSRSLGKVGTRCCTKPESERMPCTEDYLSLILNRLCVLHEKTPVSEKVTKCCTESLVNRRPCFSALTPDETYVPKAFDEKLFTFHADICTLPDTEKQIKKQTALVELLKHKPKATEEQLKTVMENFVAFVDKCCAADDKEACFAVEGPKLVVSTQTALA
Sequence of A-peak-BSA (P02769 25-607): as above

B1: SJ-5: mouse monoclonal antibody raised against GAL13-MSA; heavy-chain variable region SEQ ID NO 4, light-chain variable region SEQ ID NO 8 (antibody, listed as Mus musculus, V domains shown)
VH: EVMLVESGGRLVKPGGSLKLSCAASGFTFSSYGMSWVRQTPEKRLEWVATISGGGSYTYYPDSVKGRFTISRDNVKNNLYLQMSSLRSEDTALYYCARRGAYGDYGWFAYWGQGTLVTVSA
VL: DIVLTQSPATLSVTPGDSVSLSCRASQSINNNLHWYQQKSHESPRLLIKCASQSISGIPSRFSGSGSGTDFTLSINSVETEDFGMYFCQQSNSWPLTFGAGTKLELK
With B1, the Kd with Glycer-AGEs-BSA is 57.4 nM. This counts as double-digit nanomolar.

B2: PB-1: mouse monoclonal antibody raised against A-peak-BSA; heavy-chain variable region SEQ ID NO 18, light-chain variable region SEQ ID NO 22 (antibody, listed as Mus musculus, V domains shown)
VH: EVRLQQSGPELVKPGTSVKISCKASGYSFTGYYMHWVKQSPVKSLEWIGRIIPYNGATSYNQNFKDKASLTVDKSSRTAYMDLHSLTSEDSAVYYCARSRYYGRAPYYFDYWGQGTTLTVSS
VL: DVVVTQTPLSLPVSLGDQASISCRSSQSIVHSNGNTYLEWYLQKPGQSPKLLIYKVSNRFSGVPDRISGSGSGTDFTLKISRVEAGDLGVYSCFQGSHVPFTFGSGTKLEIK
With B2, the “protein band detection in Western blotting” value in experiment [1] was “a band was detected”. Besides, in the experiment with A-peak-BSA, the affinity, expressed as Kd, was 4.15 nM.
